# Assay results published in publication PMC11897370 (Scientific Reports, 2025).
# Substitutions are numbered along the chain they refer to. In names and notes the source's numbering stands.
# B1: Wild type (Wt) peroxiredoxin 6 (Prdx6), recombinant rat (enzyme)
# chain: MPGGLLLGDEAPNFEANTTIGHIRFHDFLGDSWGILFSHPRDFTPVCTTELGRAAKLAPEFAKRNVKLIALSIDSVEDHFAWSKDINAYNGAAPTEKLPFPIIDDKDRDLAILLGMLDPAEKDEKGMPVTARVVFIFGPDKKLKLSILYPATTGRNFDEILRVVDSLQLTASNPVATPVDWKKGESVMVLPTLPEEEAKQLFPKGVFTKELPSGKKYLRYTPQP
# B2: H79A mutant of rat Prdx6 (enzyme)
# chain: B1 chain with H79A
# B3: D42A mutant of rat Prdx6 (enzyme)
# chain: B1 chain with D42A
# Biological target: the molecule itself
# Test: dynamic light scattering
row,Protein,stoichiometry N
1,B1,2
2,B2,2
3,B3,2
